# Measured values reported in US20180235193A1 (MINERVA BIOTECHNOLOGIES, published 2018).
# T1: recombinant human NME7-AB (human, UniProt Q9Y5B8 92-376)
# T1 construct: Truncated recombinant human NME7, about 33 kDa, active as a monomer; also called rhMNE7-AB
# T1 sequence: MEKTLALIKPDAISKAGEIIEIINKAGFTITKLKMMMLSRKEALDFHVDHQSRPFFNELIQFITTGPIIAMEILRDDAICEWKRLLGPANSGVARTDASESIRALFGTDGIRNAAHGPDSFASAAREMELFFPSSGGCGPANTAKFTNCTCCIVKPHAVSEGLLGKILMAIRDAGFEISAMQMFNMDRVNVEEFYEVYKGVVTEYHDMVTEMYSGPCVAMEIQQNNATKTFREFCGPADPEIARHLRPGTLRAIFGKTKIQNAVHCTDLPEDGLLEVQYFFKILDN
# Target: T1, recombinant human NME7-AB
# Assay: sandwich ELISA, PSMGFR peptide coated on the surface, HRP signal
binder,measurement,value
GTINVHDVETQFNQYKTEAASRYNLTISDVSVSDVPFPFSAQSGA (Synthetic peptide; also called PSMGFR peptide; MUC1* peptide) [MUC1* extracellular domain peptide PSMGFR],binding result,binds
